± gives the standard deviation of the averaged measurements.
Tested on: ATP
Experiment: switch fluorescence ratio, 500 uM ATP over buffer (Cy3 cluster intensity, sum of 5 cycles each) (fold (ratio)); higher = stronger signal-on switching upon ATP binding; sequences stand for … in TCGTCGGCAGCGTCAGATGTGTATAAGAGACAGTTTTTTTTTTTTTTTTTTTTTTTTT…TC
Settings: aptamer strand: ATP DNA aptamer (quencher-CACCTGGGGGAGTATTGCGGAGGAAGG + anchor), 100 nM annealed; ATP concentration: 500 uM
Summary of the method: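 For every switch-domain sequence, the fluorescence ratio is the mean of per-cluster values, each being summed target-cycle Cy3 intensity over summed buffer-cycle Cy3 intensity. Clusters outside 100-1000 RFU were excluded. On a modified Illumina MiSeq flow-cell, the Cy3-labelled switching-strand clusters were annealed to 100 nM quencher-labelled ATP aptamer, imaged in selection buffer and then after 15 min with 500 uM ATP at 22 °C. Five such cycles were run, with NaOH stripping and re-annealing between them.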
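Also: ATP exposure 15 min at 22 °C before imaging.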

| Sequence | switch fluorescence ratio |
| --- | --- |
| TATTAAGAAA | 0.962 ± 0.016 |
| GGAAATATTA | 1.04 ± 0.04 |
| TGGAAAACTT | 1.11 ± 0.16 |
| GATAGAGGTG | 1.32 ± 0.62 |
| AACAATGCTA | 1.05 ± 0.026 |
| TGAGCTATAT | 1.42 ± 0.077 |
| AAGGACATTA | 1.042 ± 0.0014 |
| TGGTGTATAG | 1 ± 0.036 |
| AGAATTAACT | 0.998 ± 0.025 |
| CGGATGGCCT | 1.03 ± 0.019 |
| AAGCGCATTT | 1.05 ± 0.029 |
| ATCCGAGATG | 1.034 ± 0.0074 |
| GACTTGGGCG | 0.957 ± 0.084 |
| ACTGGACACA | 1.22 ± 0.069 |
| GACGTATTGC | 1.27 ± 0.061 |
| TAATCTTTTT | 1.01 ± 0.021 |
| TGGATTTTGG | 0.98 ± 0.021 |
| GCGATGTAGA | 1.051 ± 0.0087 |
| TAAAAGACCG | 1.077 ± 0.007 |
| ATGATATGGT | 0.983 ± 0.029 |
| TTTGAAGGG | 0.965 ± 0.012 |
| CCTGAGGGGA | 1.16 ± 0.2 |
| TAGTATGGGT | 0.9692 ± 0.0077 |

| Sequence | switch fluorescence ratio |
| --- | --- |
| CGCGATTATT | 1.09 ± 0.04 |
| TGTAGTATGT | 1 ± 0.012 |
| TGGGGGCGGT | 0.996 ± 0.028 |
| GCACCTATAT | 1.04 ± 0.039 |
| CAGTGCGTGT | 1 ± 0.03 |
| CCGGTTCATT | 1.0368 ± 0.00072 |
| GGCTTGAACA | 1.01 ± 0.034 |
| AAAATCGTGA | 1.009 ± 0.0097 |
| ATAATATAAC | 1 ± 0.018 |
| AAGTCGGGAC | 1.08 ± 0.039 |
| TTAATTGGGC | 1.03 ± 0.069 |
| TTATAGGGG | 1 ± 0.039 |
| GTGTGGGCTG | 1.0001 ± 0.0002 |
| GAGGGGCTGT | 0.981 ± 0.038 |
| TTAACAATCG | 1.02 ± 0.02 |
| TTTTTTGAT | 1.01 ± 0.032 |
| TAAATATTTA | 0.976 ± 0.05 |
| AGATTCGTCA | 0.988 ± 0.018 |
| CAGCAACTCA | 1.65 ± 0.024 |
| TAGGGATGGT | 0.979 ± 0.022 |
| CGGTAATTTT | 0.975 ± 0.021 |
| AACAGAAATA | 1.01 ± 0.021 |
| AAGTGCGGCG | 1.03 ± 0.029 |

| Sequence | switch fluorescence ratio |
| --- | --- |
| TTACGGCCAA | 1.26 ± 0.31 |
| ACGCAGTATA | 1.05 ± 0.013 |
| CTACACGCTG | 1.01 ± 0.1 |
| AGTGTTTTTG | 0.9936 ± 0.0011 |
| TTTCGGGCCA | 1.12 ± 0.039 |
| TAGTTGAGTG | 0.987 ± 0.037 |
| AGTCGGATGT | 0.989 ± 0.023 |
| TATTAGGTAT | 0.961 ± 0.018 |
| TCTGGAAAGG | 0.9844 ± 0.00033 |
| TCCACCGTCG | 1.27 ± 0.065 |
| TTTAATCTG | 0.962 ± 0.021 |
| TATTTGGTGA | 0.993 ± 0.025 |
| CGGGTTGCCC | 1 ± 0.012 |
| GAAACGATGT | 1.08 ± 0.05 |
| AAAGGGGGAG | 0.997 ± 0.011 |
| CCGGGCGGGG | 1.07 ± 0.018 |
| TATGTTTCAA | 1.017 ± 0.0089 |
| GGACTGGAGC | 0.9905 ± 0.0021 |
| ATGTCCCAAG | 0.99 ± 0.042 |
| AACGCTTATT | 1.09 ± 0.064 |
| GGGTCGCAGC | 0.998 ± 0.015 |
| TTCGAGTTGG | 0.9772 ± 0.0027 |
| CGCGGTAATT | 1.05 ± 0.063 |

| Sequence | switch fluorescence ratio |
| --- | --- |
| CCCGGGGCTA | 1.08 ± 0.036 |
| GTTGATAACT | 1.009 ± 0.0012 |
| GAACTCTGGG | 0.9899 ± 0.006 |
| GCGGGACTTG | 1.03 ± 0.029 |
| TAGTGAAAGA | 0.9855 ± 0.0031 |
| TCACGGTGCT | 1.15 ± 0.19 |
| TCGCGGGTGG | 1.03 ± 0.021 |
| GGGGATAGAA | 0.982 ± 0.014 |
| GGTTTGATGT | 0.975 ± 0.023 |
| AGGACGCTGG | 0.9449 ± 0.0088 |
| TAAGTCGGAA | 0.996 ± 0.022 |
| AATTATACAT | 1.04 ± 0.043 |
| GTCGGGGGGA | 0.993 ± 0.014 |
| TGCGATGTAG | 0.9889 ± 0.005 |
| AAGTTGTGGT | 1.01 ± 0.023 |
| TCGTGGTCTG | 0.999 ± 0.036 |
| AGAATGGGAA | 1 ± 0.019 |
| TTACTCCTTT | 1 ± 0.017 |
| ACATCGGGCT | 1.02 ± 0.027 |
| TCCGCGGTTT | 1.23 ± 0.18 |
| CCTTCCGGGG | 2.07 ± 0.23 |
| GGCTAACAAG | 1.01 ± 0.02 |
| TTGAGATTGC | 0.98 ± 0.027 |

| Sequence | switch fluorescence ratio |
| --- | --- |
| GGGAAGTCAA | 1.02 ± 0.032 |
| GATATTTTGT | 0.997 ± 0.031 |
| GCGCTGGTTA | 0.9941 ± 0.0027 |
| TTTACGGGTC | 0.981 ± 0.026 |
| ACGTCAAGGG | 1.1 ± 0.067 |
| AGGTAGGCCA | 0.951 ± 0.026 |
| GGGTGGTGGC | 0.964 ± 0.082 |
| GCGGGTTAGT | 1.13 ± 0.13 |
| CGTGGGCATT | 1.01 ± 0.034 |
| ACCTCATTAA | 1.03 ± 0.015 |
| AGAGATGAGG | 0.974 ± 0.042 |
| TATGTGGGGT | 0.992 ± 0.026 |
| CGGGTTATAA | 1.04 ± 0.022 |
| TTTTTTACCC | 1.01 ± 0.028 |
| CAGTTTTATC | 1.012 ± 0.0039 |
| ATAAGGCTTT | 0.989 ± 0.029 |
| CTCTCGAAGC | 1.1577 ± 0.0001 |
| GAATTTGGGG | 0.961 ± 0.03 |
| AAGTGTGGGC | 0.984 ± 0.023 |
| GAAACTAATT | 0.9966 ± 0.0042 |
| TTGATTACTC | 1.04 ± 0.051 |
| ATGGTAGAAA | 1.02 ± 0.012 |
| GAGTATGCCC | 1.02 ± 0.039 |

| Sequence | switch fluorescence ratio |
| --- | --- |
| GCAGGGATAC | 3.4 ± 0.048 |
| CAGGCATAAG | 0.9805 ± 0.0036 |
| ATAGTGTGGC | 0.952 ± 0.029 |
| GGGTCAGGGG | 1.09 ± 0.077 |
| GGGGTACGCT | 0.99523 ± 0.00067 |
| TGGTTGTCGC | 0.991 ± 0.065 |
| GGAAGAGGGG | 0.991 ± 0.016 |
| TTGTGTGATT | 1.02 ± 0.038 |
| GGGGTTAGAG | 0.991 ± 0.033 |
| TAGAGTAGCT | 1 ± 0.035 |
| CATGGGGGTC | 1 ± 0.036 |
| AGCCTTTTTT | 0.982 ± 0.011 |
| TATAAAAAAT | 1 ± 0.028 |
| GGAAAAAATG | 1 ± 0.048 |
| TGATTGGATG | 0.9855 ± 0.007 |
| TTGGTGCTGT | 1.01 ± 0.017 |
| ATCTATCCAC | 1.09 ± 0.037 |
| CCATTAAACT | 1.014 ± 0.008 |
| GGAATAATTT | 1.51 ± 0.73 |
| GTTACACTCA | 1.032 ± 0.002 |
| CGAGCTTTAG | 1.024 ± 0.0033 |
| TGAGGGGAGA | 1.02 ± 0.028 |
| TCATAATTGA | 0.99 ± 0.012 |

| Sequence | switch fluorescence ratio |
| --- | --- |
| CCATTGCACG | 1.16 ± 0.12 |
| CGATGAGTAA | 1 ± 0.029 |
| TTGCTGGCCG | 1.03 ± 0.026 |
| TTGTATTAGG | 0.968 ± 0.05 |
| CAGGGGTATT | 1.32 ± 0.42 |
| ACGGGCGCAG | 0.994 ± 0.017 |
| TTTCTTGGCT | 1.2 ± 0.38 |
| TTTGTTTGTA | 1.01 ± 0.017 |
| GGCCGAATGG | 1.03 ± 0.043 |
| TTTAGATGGG | 0.989 ± 0.029 |
| TGATAAGGGG | 1.01 ± 0.039 |
| ATTTGTGGAC | 0.973 ± 0.037 |
| CCTGCGCACG | 3.98 ± 0.93 |
| TGTGGGTATT | 1.01 ± 0.028 |
| TAAAGCGCGG | 1.074 ± 0.0037 |
| GTTTGTTCGC | 0.997 ± 0.076 |
| CGGGCGGGTA | 1.034 ± 0.0088 |
| AATAGAGGAT | 0.971 ± 0.039 |
| AGACATATTT | 1 ± 0.027 |
